Reference: paper PMC5859130, “Ixonnexin from Tick Saliva Promotes Fibrinolysis by Interacting with Plasminogen and Tissue-Type Plasminogen Activator, and Prevents Arterial Thrombosis” (Scientific Reports, 2018)

Columns and labels:
Lys-plasminogen = target: T1, Lys-plasminogen (UniProt P00747 97-810); assay: SPR; Ixonnexin amine-coupled to a carboxymethylated dextran (CM5) chip, 726.2 RU; analytes injected 120 s at 30 µL/min, 25 °C, dissociation 600 s; global fit with the two-state (conformational change) model, Langmuir 1:1 for plasmin; conditions: both partners purified
T1 construct: source: bought: Enzyme Research Laboratories or Innovative Research

Factor Xa = assay: cell-based or functional assay
[1] = target: the molecule itself; assay: SEC; Superdex 75 10/300, 20 mM Tris-HCl, 0.15 M NaCl, pH 8, 0.5 mL/min; column calibrated with salivary proteins of known mass

Sequence of Factor Xa (P00742 32-488): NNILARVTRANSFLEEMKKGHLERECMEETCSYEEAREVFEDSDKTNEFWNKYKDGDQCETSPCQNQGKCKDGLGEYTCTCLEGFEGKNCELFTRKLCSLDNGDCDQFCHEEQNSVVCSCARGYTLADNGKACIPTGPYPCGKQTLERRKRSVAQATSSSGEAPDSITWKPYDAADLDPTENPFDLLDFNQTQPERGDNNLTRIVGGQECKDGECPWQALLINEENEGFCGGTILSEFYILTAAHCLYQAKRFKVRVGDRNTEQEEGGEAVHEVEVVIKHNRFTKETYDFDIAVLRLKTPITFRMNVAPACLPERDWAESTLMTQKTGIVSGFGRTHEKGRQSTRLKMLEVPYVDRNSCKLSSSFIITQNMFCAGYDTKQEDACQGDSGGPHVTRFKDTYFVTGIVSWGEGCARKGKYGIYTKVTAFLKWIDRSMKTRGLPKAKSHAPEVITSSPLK
T1 sequence (P00747 97-810): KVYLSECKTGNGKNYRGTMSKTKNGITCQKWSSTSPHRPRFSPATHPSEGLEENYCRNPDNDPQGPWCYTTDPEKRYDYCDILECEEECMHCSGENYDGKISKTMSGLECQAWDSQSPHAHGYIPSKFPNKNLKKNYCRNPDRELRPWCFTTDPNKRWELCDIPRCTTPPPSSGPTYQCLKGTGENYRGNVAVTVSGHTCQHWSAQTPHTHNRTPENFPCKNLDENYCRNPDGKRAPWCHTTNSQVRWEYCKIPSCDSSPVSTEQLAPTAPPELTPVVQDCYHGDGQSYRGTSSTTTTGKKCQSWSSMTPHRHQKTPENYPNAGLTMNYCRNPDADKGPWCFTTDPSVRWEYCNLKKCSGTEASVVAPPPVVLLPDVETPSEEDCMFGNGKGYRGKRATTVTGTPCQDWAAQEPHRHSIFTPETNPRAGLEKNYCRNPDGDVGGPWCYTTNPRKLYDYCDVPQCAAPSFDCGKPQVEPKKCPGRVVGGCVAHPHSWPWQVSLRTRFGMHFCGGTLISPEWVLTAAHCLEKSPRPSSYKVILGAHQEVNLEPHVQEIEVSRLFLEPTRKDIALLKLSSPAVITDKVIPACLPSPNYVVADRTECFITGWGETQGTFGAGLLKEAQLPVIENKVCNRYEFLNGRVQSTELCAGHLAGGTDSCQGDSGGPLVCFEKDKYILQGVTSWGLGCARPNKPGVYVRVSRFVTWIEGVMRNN

B1: Ixonnexin (natural protein)
chain: HNCQNGTRPASEENREGCDYYCWNAETKSWDQFFFGNGERCFYNTGEKGTCLNGECHLTTSSGGPDDTGDNTPPPTEKPKQKKKKPKKTKKPKRKSKKDQKENF
notes: Ixonnexin, 'Basic-tail' family salivary protein of Ixodes scapularis (gi 67083505); the precursor has a signal peptide of 21 residues (cut between Ala21 and His22); the mature protein of 104 residues was synthesized; numbers count on: the mature protein; 3 disulfide bonds after folding; Gel filtration is consistent with a non-covalent dimer; mass spectrometry gave a single monomeric mass; also …
Kd (Lys-plasminogen): 14.4 nM | amidolytic activity of FXa (0.33 nM) on a fluorogenic substrate, enhanced by Ixonnexin: IC50 (Factor Xa): 9.73 nM | stoichiometry N [1]: 2
